Key:
Type in all cases: biochemical
deglycosylated rituximab [1] = assay: Kinetic measurements (KM, Vmax) of Endo-S/Endo-S2 mutants for deglycosylated rituximab
From the text: (§1) Peptide-N-Glycosidase F (PNGase F) treated rituximab was used as the internal standard due to its similarities to the deglycosylated and transferred product in terms of their molecular structures and ionization efficiencies. After PNGase F treatment, a mutation will be introduced into the amino acid sequence of rituximab so the product antibody will not interfere with the reaction via re-glycosylation^35. A standard product S2G2F-rituximab was synthesized following the previously reported procedure^29. […] Serial dilutions containing a gradient of S2G2F-rituximab (0, 0.25, 0.5, 0.75, 1.0, 1.25 and 1.5 μM) were mixed with a stock solution containing 0.67 μM internal standard. These mixed sample solutions were quantified by selected ion monitoring (SIM) to calculate the single-point normalization factor^31. The factor could then be used to calculate the relative amount of the final product N-glycoform for each reaction in the following experiments.
(§2) Measurements of KM and Vmax for SCT-oxa. Serial dilutions with a total volume of 10 μL were prepared with a gradient of SCT-oxa concentrations and a constant deglycosylated antibody concentration mixed in PBS, pH 7.4. Each reaction was initiated by adding 1μμL, of Endo-S/S2 mutants with a concentration of 0.1 mg/M1 and the reaction was conducted at 30° C. The concentrations of SCT-oxa were within a range from 6.25 μM to 400 μM. For each reaction, three aliquots were taken at t=1, 2 and 3 min and immediately quenched in 100 μL 0.1% formic acid. The quenched reaction samples were then characterized by ESI-MS, and the concentration of product in each mixture was calculated using the normalization factor, as shown above. A linear progression curve was confirmed for each reaction by sampling at multiple early time points and plotting them in the same graph, which emphasized that the V0 measured indeed represents the initial rate of each reaction. The KM and Vmax were measured by fitting the initial velocity against the SCT-oxa concentration using the GraphPad Prism7 program. The experiments were conducts in triplicate to determine the error in these measurements.
The KM and Vmax values of both Endo-S and Endo-S2 mutants for the deglycosylated antibody substrate were measured in a similar fashion as to those for SCT-Oxa. In the serial reactions, the concentrations of antibody range from 0.313 μM to 20 μM, whereas the SCT-Oxa concentration was fixed at 400 μM. A similar control reaction was also performed for each concentration to monitor the non-enzymatic side reactions.

[2] = Kinetic measurements (KM, Vmax) of Endo-S/Endo-S2 mutants for SCT-Oxa; details: for Km / kcat: Endo-S2 mutants, donor substrate SCT-Oxa, PBS pH 7.4, 30° C.
Method: Using a sialylated glycan oxazoline (SCT-Oxa) as the donor and the deglycosylated rituximab as the acceptor substrate, we measured the kinetic parameters of the enzyme catalyzed glycosylation were measured. A mass spectrometry-based approach with an internal standard was used to estimate the product formation.^31-33.
as §1
as §2, with “A linear progression curve was confirmed for each reaction by sampling at multiple early time points and plotting them in the same graph, which emphasized that the V0 measured indeed represents the initial rate of each reaction.” left out

rituximab = assay: Hydrolysis activity assay of Endo-S and D233 mutants, LC-ESI-MS; details: rituximab 1.0 mg/mL as substrate, enzyme 0.01 mg/mL, PBS pH 7.4, 30° C., 5 min, duplicate
Method: (§3) The hydrolytic activity of the mutants generated was evaluated using rituximab as the substrate, and the transglycosylation activity was evaluated using the sugar oxazoline and the deglycosylated rituximab as the donor and acceptor substrates, respectively (Scheme 1).
(§4) The LC-MS characterization of different antibody glycoforms was conducted on an Exactive Plus Orbitrap instrument (Thermo Scientific). The intact antibody sample was analyzed with a Waters XBridge™ BEH300 C4 column (3.5 μm, 2.1×50 mm). The program includes a 9 min linear gradient of 5-90% MeCN containing 0.1% formic acid at a flow rate of 0.4 mL/min. The original mass data were processed through deconvolution and integration through MagTran Software (Amgen).
as §1
(§5) The hydrolytic activity of each Endo-S mutants and the wild-type (0.01 mg/mL) was assayed in PBS (pH 7.4, 10 μl) at 30° C. with synthetic biantennary sialo-complex-type rituximab (1.0 mg/mL, 6.9 μM) as the starting material. Each reaction was terminated at 5 min and an aliquot was taken from the reaction mixture and dissolved in 0.1% formic acid. The relative quantity of the hydrolysis product was calculated through deconvolution and integration of the selected MS peaks. The experimental details of product quantification using LC-MS are illustrated below. The transglycosylation activity of Endo-S was measured in a similar fashion: deglycosylated Rituximab (10.0 mg/mL, 69 μM) was incubated with SCT-Oxa (1.38 mM, 20 eq) under catalysis of Endo-S enzymes (0.01 mg/mL) under the same condition as hydrolysis. The transglycosylation product SCT-Rituximab was analyzed as mentioned above. Both functional assays were repeated twice for each mutant and the wild-type, and the average activity was recorded

deglycosylated rituximab [3] = assay: Transglycosylation activity assay of Endo-S and D233 mutants, LC-ESI-MS
Method: as §3, §4, §1, §5

[4] = Endo-S2 mutants, acceptor substrate deglycosylated rituximab, SCT-Oxa fixed at 400 μM
[5] = Endo-S2, glycan oxazoline substrate

Molecule	substrate affinity for the deglycosylated antibody (in words) (deglycosylated rituximab [1]; Asp-to-Met versus Asp-to-Ala mutant)	Km (deglycosylated rituximab [1]; [4]) [µM]	kcat (deglycosylated rituximab [1]; [4]) [s⁻¹]	decrease in substrate affinity (KM) versus D184A [2, 5]	increase in catalytic turnover numbers (kcat) over D184A [2, 5]	increase in kcat/KM over D184A ([2]; Endo-S2, sugar oxazoline substrate)	Km [2] [µM]	kcat [2] [s⁻¹]	catalytic turnover number compared with Endo-S D233M (in words) ([2]; for both the sugar oxazoline and the antibody substrates)	KM value relative to Endo-S2 D184M (deglycosylated rituximab [1]; deglycosylated rituximab)	Specific Hydrolysis Activity (rituximab)	Transglycosylation Activity (deglycosylated rituximab [3]; deglycosylated rituximab 10.0 mg/mL, SCT-Oxa 1.38 mM (20 eq), enzyme 0.01 mg/mL, PBS pH 7.4, 30° C., duplicate)	Transglycosylation/Hydrolysis Ratio T/H (deglycosylated rituximab [3]; ratio of transglycosylation to hydrolysis activity, Table 1)
Endo-S2 D184M (protein) EEKTVQTGKTDQQVGAKLVQEIREGKRGPLYAGYFRTWHDRASTGIDGKQQHPENTMAEVPKEVDILFVFHDHTASDSPFWSELKDSYVHKLHQQGTALVQTIGVNELNGRTGLSKDYPDTPEGNKALAAAIVKAFVTDRGVDGLDIMIEHEFTNKRTPEEDARALNVFKEIAQLIGKNGSDKSKLLIMDTTLSVENNPIFKGIAEDLDYLLRQYYGSQGGEAEVDTINSDWNQYQNYIDASQFMIGFSFFEESASKGNLWFDVNEYDPNNPEKGKDIEGTRAKKYAEWQPSTGGLKAGIFSYAIDRDGVAHVPSTYKNRTSTNLQRHEVDNISHTDYTVSRKLKTLMTEDKRYDVIDQKDIPDPALREQIIQQVGQYKGDLERYNKTLVLTGDKIQNLKGLEKLSKLQKLELRQLSNVKEITPELLPESMKKDAELVMVGMTGLEKLNLSGLNRQTLDGIDVNSITHLTSFDISHNSLDLSEKSEDRKLLMTLMEQVSNHQKITVKNTAFENQKPKGYYPQTYDTKEGHYDVDNAEHDILTDFVFGTVTKRNTFIGDEEAFAIYKEGAVDGRQYVSKDYTYEAFRKDYKGYKVHLTASNLGETVTSKVTATTDETYLVDVSDGEKVVHHMKLNIGSGAIMMENLAKGAKVIGTSGDFEQAKKIFDGEKSDRFFTWGQTNWIAFDLGEINLAKEWRLFNAETNTEIKTDSSLNVAKGRLQILKDTTIDLEKMDIKNRKEYLSNDENWTDVAQMDDAKAIFNSKLSNVLSRYWRFCVDGGASSYYPQYTELQILGQRLSNDVANTLKD	significantly higher substrate affinity for the antibody than the Endo-S2 D184A mutant	32.6 ± 6.71	0.4973 ± 0.155	less than 2 fold	more than 15 fold	more than 10 fold	229 ± 34.8	2.7968 ± 0.3417	significantly higher catalytic turnover number than Endo-S D233M	–	–	–	–
Endo-S2 D184A (protein) EEKTVQTGKTDQQVGAKLVQEIREGKRGPLYAGYFRTWHDRASTGIDGKQQHPENTMAEVPKEVDILFVFHDHTASDSPFWSELKDSYVHKLHQQGTALVQTIGVNELNGRTGLSKDYPDTPEGNKALAAAIVKAFVTDRGVDGLDIAIEHEFTNKRTPEEDARALNVFKEIAQLIGKNGSDKSKLLIMDTTLSVENNPIFKGIAEDLDYLLRQYYGSQGGEAEVDTINSDWNQYQNYIDASQFMIGFSFFEESASKGNLWFDVNEYDPNNPEKGKDIEGTRAKKYAEWQPSTGGLKAGIFSYAIDRDGVAHVPSTYKNRTSTNLQRHEVDNISHTDYTVSRKLKTLMTEDKRYDVIDQKDIPDPALREQIIQQVGQYKGDLERYNKTLVLTGDKIQNLKGLEKLSKLQKLELRQLSNVKEITPELLPESMKKDAELVMVGMTGLEKLNLSGLNRQTLDGIDVNSITHLTSFDISHNSLDLSEKSEDRKLLMTLMEQVSNHQKITVKNTAFENQKPKGYYPQTYDTKEGHYDVDNAEHDILTDFVFGTVTKRNTFIGDEEAFAIYKEGAVDGRQYVSKDYTYEAFRKDYKGYKVHLTASNLGETVTSKVTATTDETYLVDVSDGEKVVHHMKLNIGSGAIMMENLAKGAKVIGTSGDFEQAKKIFDGEKSDRFFTWGQTNWIAFDLGEINLAKEWRLFNAETNTEIKTDSSLNVAKGRLQILKDTTIDLEKMDIKNRKEYLSNDENWTDVAQMDDAKAIFNSKLSNVLSRYWRFCVDGGASSYYPQYTELQILGQRLSNDVANTLKD	–	> 680	–	–	–	–	121 ± 17.1	0.17 ± 0.0395	–	more than 20 times	–	–	–
Endo-S WT: wild-type Endo-S, endo-β-N-acetylglucosaminidase of Streptococcus pyogenes (SEQ ID NO: 1) (protein, Streptococcus pyogenes) MDKHLLVKRTLGCVCAATLMGAALATHHDSLNTVKAEEKTVQVQKGLPSIDSLHYLSENSKKEFKEELSKAGQESQKVKEILAKAQQADKQAQELAKMKIPEKIPMKPLHGPLYGGYFRTWHDKTSDPTEKDKVNSMGELPKEVDLAFIFHDWTKDYSLFWKELATKHVPKLNKQGTRVIRTIPWRFLAGGDNSGIAEDTSKYPNTPEGNKALAKAIVDEYVYKYNLDGLDVDVEHDSIPKVDKKEDTAGVERSIQVFEEIGKLIGPKGVDKSRLFIMDSTYMADKNPLIERGAPYINLLLVQVYGSQGEKGGWEPVSNRPEKTMEERWQGYSKYIRPEQYMIGFSFYEENAQEGNLWYDINSRKDEDKANGINTDITGTRAERYARWQPKTGGVKGGIFSYAIDRDGVAHQPKKYAKQKEFKDATDNIFHSDYSVSKALKTVMLKDKSYDLIDEKDFPDKALREAVMAQVGTRKGDLERFNGTLRLDNPAIQSLEGLNKFKKLAQLDLIGLSRITKLDRSVLPANMKPGKDTLETVLETYKKDNKEEPATIPPVSLKVSGLTGLKELDLSGFDRETLAGLDAATLTSLEKVDISGNKLDLAPGTENRQIFDTMLSTISNHVGSNEQTVKFDKQKPTGHYPDTYGKTSLRLPVANEKVDLQSQLLFGTVTNQGTLINSEADYKAYQNHKIAGRSFVDSNYHYNNFKVSYENYTVKVTDSTLGTTTDKTLATDKEETYKVDFFSPADKTKAVHTAKVIVGDEKTMMVNLAEGATVIGGSADPVNARKVFDGQLGSETDNISLGWDSKQSIIFKLKEDGLIKHWRFFNDSARNPETTNKPIQEASLQIFNIKDYNLDNLLENPNKFDDEKYWITVDTYSAQGERATAFSNTLNNITSKYWRVVFDTKGDRYSSPVVPELQILGYPLPNADTIMKTVTTAKELSQQKDKFSQKMLDELKIKEMALETSLNSKIFDVTAINANAGVLKDCIEKRQLLKK	–	–	–	–	–	–	–	–	–	–	2.77 100*(μmol/min/mg)	25.89 100*(μmol/min/mg)	9.35
